Test results from the supplement of paper PMC10065799, “High-throughput profiling of sequence recognition by tyrosine kinases and SH2 domains using bacterial peptide display” (eLife, 2023).

Molecular target: MERTK (UniProt Q12866)
Assay: phosphorylation enrichment, bacterial display (enrichment ratio); higher = better substrate or ligand; peptides without Tyr show the background
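Further: 11-residue human phosphosite peptides and single-mutation variants displayed on the E. coli surface, counted by deep sequencing, each peptide's frequency after selection divided by its frequency in the unselected input library; frequency after pTyr selection over input frequency; kinase dosed for 20-30% of maximal phosphorylation in three min.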

Chain of MERTK (Q12866 whole entry, looked up): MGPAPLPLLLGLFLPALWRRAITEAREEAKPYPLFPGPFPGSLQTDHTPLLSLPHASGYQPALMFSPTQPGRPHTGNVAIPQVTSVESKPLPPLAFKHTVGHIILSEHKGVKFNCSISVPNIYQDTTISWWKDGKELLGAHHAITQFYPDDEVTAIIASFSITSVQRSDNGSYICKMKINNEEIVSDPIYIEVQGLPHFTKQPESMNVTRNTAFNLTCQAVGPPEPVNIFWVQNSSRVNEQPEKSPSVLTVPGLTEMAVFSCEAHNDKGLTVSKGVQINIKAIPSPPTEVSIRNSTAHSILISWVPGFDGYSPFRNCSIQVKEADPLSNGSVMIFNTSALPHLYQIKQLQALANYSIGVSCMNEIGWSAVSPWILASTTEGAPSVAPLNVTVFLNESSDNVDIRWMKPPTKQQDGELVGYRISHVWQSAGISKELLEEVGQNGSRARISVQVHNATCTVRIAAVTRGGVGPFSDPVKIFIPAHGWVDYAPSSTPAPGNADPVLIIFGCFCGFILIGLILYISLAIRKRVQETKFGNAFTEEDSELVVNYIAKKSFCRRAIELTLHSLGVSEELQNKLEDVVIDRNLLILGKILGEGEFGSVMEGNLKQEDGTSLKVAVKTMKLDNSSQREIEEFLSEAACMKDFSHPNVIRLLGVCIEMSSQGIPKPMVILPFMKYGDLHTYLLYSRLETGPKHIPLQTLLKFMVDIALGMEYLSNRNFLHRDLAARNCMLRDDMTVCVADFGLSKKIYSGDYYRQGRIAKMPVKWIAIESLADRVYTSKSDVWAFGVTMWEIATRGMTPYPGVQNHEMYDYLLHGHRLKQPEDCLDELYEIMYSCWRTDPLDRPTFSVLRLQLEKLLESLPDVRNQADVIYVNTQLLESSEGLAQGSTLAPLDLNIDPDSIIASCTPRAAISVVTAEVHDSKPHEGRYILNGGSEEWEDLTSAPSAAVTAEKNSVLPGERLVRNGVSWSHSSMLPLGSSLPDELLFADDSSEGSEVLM

Sequence	phosphorylation enrichment
DDPRTYQKYGY [OAS1_Y362_R361T]	0.421
VPVNGYQPVTA [ROR2_Y824_P828T]	0.392
RSSNTYTLMDV [ALCAM_Y298_T301M]	4.15
EDASEYYENYI [PARP4_Y214_F215Y]	0.467
HSKGIYYVQLE [MGAT4B_Y262_Q257H]	9.49
KYVVVYFRETD [IL17RB_Y447_I451T]	0.445
RELGKYGLQAY [ALDH2_Y497_E496K]	0.457
INNIDYFKNTT [FGFR2_Y656_K659N_YF]	0.408
DMQTLYVNTAA [SMCHD1_Y403]	0.513
SVVAPYEPPEV [TP53_Y220_V218A]	0.629
NKPTVCGVSPN [ABL1_Y226_Y226C]	0.467
RRAKGYPINLF [ITGB2_Y125_D128N_YF]	0.476
CPTIHYNYMCN [TP53_Y234_T230P]	0.462
ISDDKYGRIRL [ARCN1_Y310]	0.325
MECLPYGSLRD [JAK2_Y934_Y931C]	0.409
MPIPMYDASQA [CARMIL1_Y637]	0.566
CTLSVYRQLHN [LUZP1_Y1036]	0.435

Sequence	phosphorylation enrichment
YSKDIYKRVTG [PANK2_Y405_N404I]	0.401
ILGRTHFVNHE [NEDD4_Y627_Y627H_YF]	0.423
VVIMLYGVDSR [PKD1_Y3143_G3139V]	0.399
HHTDEYEYDEL [TGM1_Y134]	0.687
RKPDIYGRLAS [MCM4_Y459_E460G]	0.753
RPGSGYTNIMQ [PKLR_Y564_R569Q]	0.524
YIIFIYAMKKK [SLCO1B1_Y645_L643F]	0.849
LFDPDFMKVIL [CYP4A22_Y104_Y104F_YF]	1.06
SHLSSYTTHPQ [NIPBL_Y195_P192L]	0.399
QEITTYRRLLE [KRT14_Y415_A413T]	0.416
HEKKVYSFCGT [RPS6KA3_Y226_A225V]	0.881
KAFDMYSGDVM [FAM3D_Y122]	0.876
VATRWYQSPEL [CDKL5_Y177_R178Q]	0.679
DNEAIYDICRC [TUBA4A_Y210_R215C]	5.93
YQGGTYSKAST [FGG_Y380]	0.43
DPEATYTTSGS [EPHA2_Y772_G777S]	0.34

Molecular target: EPHB2 (UniProt P29323)
Sequence (P29323 whole entry, looked up): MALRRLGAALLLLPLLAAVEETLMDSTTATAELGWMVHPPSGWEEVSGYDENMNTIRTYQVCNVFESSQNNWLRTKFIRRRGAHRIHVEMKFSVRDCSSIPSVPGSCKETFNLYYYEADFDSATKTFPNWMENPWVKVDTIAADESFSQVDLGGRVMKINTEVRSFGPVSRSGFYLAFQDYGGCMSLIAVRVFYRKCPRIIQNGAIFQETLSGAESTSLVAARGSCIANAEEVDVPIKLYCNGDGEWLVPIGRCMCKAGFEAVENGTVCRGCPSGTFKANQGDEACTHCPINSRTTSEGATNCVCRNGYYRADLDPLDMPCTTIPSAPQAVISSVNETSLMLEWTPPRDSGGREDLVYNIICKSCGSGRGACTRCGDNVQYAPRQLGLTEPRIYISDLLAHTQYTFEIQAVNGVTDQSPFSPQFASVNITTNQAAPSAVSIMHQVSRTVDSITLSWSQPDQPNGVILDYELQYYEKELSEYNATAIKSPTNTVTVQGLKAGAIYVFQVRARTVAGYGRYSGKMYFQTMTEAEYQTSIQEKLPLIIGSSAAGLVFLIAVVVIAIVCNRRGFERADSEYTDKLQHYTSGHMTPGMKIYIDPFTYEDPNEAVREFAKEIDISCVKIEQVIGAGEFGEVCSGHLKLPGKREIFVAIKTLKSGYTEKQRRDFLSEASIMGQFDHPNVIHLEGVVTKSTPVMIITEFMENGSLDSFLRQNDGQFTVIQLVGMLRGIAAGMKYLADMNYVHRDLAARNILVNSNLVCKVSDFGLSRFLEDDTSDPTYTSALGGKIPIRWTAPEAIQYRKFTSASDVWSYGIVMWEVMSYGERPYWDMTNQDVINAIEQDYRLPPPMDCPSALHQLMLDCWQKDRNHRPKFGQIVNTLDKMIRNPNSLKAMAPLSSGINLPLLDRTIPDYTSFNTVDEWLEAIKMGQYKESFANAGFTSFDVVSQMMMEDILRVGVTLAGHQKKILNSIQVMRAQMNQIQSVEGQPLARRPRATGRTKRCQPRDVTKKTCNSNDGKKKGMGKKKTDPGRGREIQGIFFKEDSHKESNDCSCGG
Assay: as above

Sequence	phosphorylation enrichment
DDPRTYQKYGY [OAS1_Y362_R361T]	0.611
VPVNGYQPVTA [ROR2_Y824_P828T]	0.414
RSSNTYTLMDV [ALCAM_Y298_T301M]	0.868
EDASEYYENYI [PARP4_Y214_F215Y]	0.761
HSKGIYYVQLE [MGAT4B_Y262_Q257H]	1.03
KYVVVYFRETD [IL17RB_Y447_I451T]	0.554
RELGKYGLQAY [ALDH2_Y497_E496K]	0.402
INNIDYFKNTT [FGFR2_Y656_K659N_YF]	0.327
DMQTLYVNTAA [SMCHD1_Y403]	0.64
SVVAPYEPPEV [TP53_Y220_V218A]	0.617
NKPTVCGVSPN [ABL1_Y226_Y226C]	0.536
RRAKGYPINLF [ITGB2_Y125_D128N_YF]	0.613
CPTIHYNYMCN [TP53_Y234_T230P]	0.607
ISDDKYGRIRL [ARCN1_Y310]	1.04
MECLPYGSLRD [JAK2_Y934_Y931C]	0.577
MPIPMYDASQA [CARMIL1_Y637]	1.01
CTLSVYRQLHN [LUZP1_Y1036]	0.631

Sequence	phosphorylation enrichment
YSKDIYKRVTG [PANK2_Y405_N404I]	0.419
ILGRTHFVNHE [NEDD4_Y627_Y627H_YF]	0.535
VVIMLYGVDSR [PKD1_Y3143_G3139V]	0.72
HHTDEYEYDEL [TGM1_Y134]	0.904
RKPDIYGRLAS [MCM4_Y459_E460G]	0.545
RPGSGYTNIMQ [PKLR_Y564_R569Q]	0.484
YIIFIYAMKKK [SLCO1B1_Y645_L643F]	0.239
LFDPDFMKVIL [CYP4A22_Y104_Y104F_YF]	0.908
SHLSSYTTHPQ [NIPBL_Y195_P192L]	0.393
QEITTYRRLLE [KRT14_Y415_A413T]	0.548
HEKKVYSFCGT [RPS6KA3_Y226_A225V]	0.68
KAFDMYSGDVM [FAM3D_Y122]	1.15
VATRWYQSPEL [CDKL5_Y177_R178Q]	0.774
DNEAIYDICRC [TUBA4A_Y210_R215C]	4.87
YQGGTYSKAST [FGG_Y380]	0.419
DPEATYTTSGS [EPHA2_Y772_G777S]	0.518

Molecular target: Hck (UniProt P08631)
Sequence (P08631 whole entry, looked up): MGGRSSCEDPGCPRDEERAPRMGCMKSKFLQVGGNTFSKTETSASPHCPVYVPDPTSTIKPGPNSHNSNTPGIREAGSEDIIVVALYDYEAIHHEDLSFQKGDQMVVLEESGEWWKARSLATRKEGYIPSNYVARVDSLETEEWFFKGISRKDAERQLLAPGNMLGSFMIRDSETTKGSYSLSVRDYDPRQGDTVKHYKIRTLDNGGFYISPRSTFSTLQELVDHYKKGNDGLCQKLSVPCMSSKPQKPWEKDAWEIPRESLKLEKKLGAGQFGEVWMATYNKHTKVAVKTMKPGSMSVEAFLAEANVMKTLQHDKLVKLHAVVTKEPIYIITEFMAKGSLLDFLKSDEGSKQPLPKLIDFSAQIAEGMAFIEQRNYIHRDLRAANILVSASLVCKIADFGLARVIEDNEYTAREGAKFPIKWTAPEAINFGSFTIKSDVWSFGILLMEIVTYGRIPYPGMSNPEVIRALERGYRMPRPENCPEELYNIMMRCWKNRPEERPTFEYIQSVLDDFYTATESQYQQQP
Assay: as above

Sequence	phosphorylation enrichment
DDPRTYQKYGY [OAS1_Y362_R361T]	0.492
VPVNGYQPVTA [ROR2_Y824_P828T]	0.348
RSSNTYTLMDV [ALCAM_Y298_T301M]	0.676
EDASEYYENYI [PARP4_Y214_F215Y]	0.666
HSKGIYYVQLE [MGAT4B_Y262_Q257H]	2.88
KYVVVYFRETD [IL17RB_Y447_I451T]	0.579
RELGKYGLQAY [ALDH2_Y497_E496K]	0.455
INNIDYFKNTT [FGFR2_Y656_K659N_YF]	0.401
DMQTLYVNTAA [SMCHD1_Y403]	0.578
SVVAPYEPPEV [TP53_Y220_V218A]	0.624
NKPTVCGVSPN [ABL1_Y226_Y226C]	0.404
RRAKGYPINLF [ITGB2_Y125_D128N_YF]	0.448
CPTIHYNYMCN [TP53_Y234_T230P]	0.429
ISDDKYGRIRL [ARCN1_Y310]	0.454
MECLPYGSLRD [JAK2_Y934_Y931C]	0.711
MPIPMYDASQA [CARMIL1_Y637]	0.552
CTLSVYRQLHN [LUZP1_Y1036]	0.456

Sequence	phosphorylation enrichment
YSKDIYKRVTG [PANK2_Y405_N404I]	0.487
ILGRTHFVNHE [NEDD4_Y627_Y627H_YF]	0.451
VVIMLYGVDSR [PKD1_Y3143_G3139V]	0.594
HHTDEYEYDEL [TGM1_Y134]	0.943
RKPDIYGRLAS [MCM4_Y459_E460G]	5.06
RPGSGYTNIMQ [PKLR_Y564_R569Q]	0.548
YIIFIYAMKKK [SLCO1B1_Y645_L643F]	0.473
LFDPDFMKVIL [CYP4A22_Y104_Y104F_YF]	1.12
SHLSSYTTHPQ [NIPBL_Y195_P192L]	0.44
QEITTYRRLLE [KRT14_Y415_A413T]	0.542
HEKKVYSFCGT [RPS6KA3_Y226_A225V]	0.645
KAFDMYSGDVM [FAM3D_Y122]	1.23
VATRWYQSPEL [CDKL5_Y177_R178Q]	0.578
DNEAIYDICRC [TUBA4A_Y210_R215C]	7.18
YQGGTYSKAST [FGG_Y380]	0.424
DPEATYTTSGS [EPHA2_Y772_G777S]	0.598

Test system: c-Abl (mouse)
Assay: as above

Sequence	phosphorylation enrichment
DDPRTYQKYGY [OAS1_Y362_R361T]	0.572
VPVNGYQPVTA [ROR2_Y824_P828T]	0.516
RSSNTYTLMDV [ALCAM_Y298_T301M]	0.614
EDASEYYENYI [PARP4_Y214_F215Y]	0.716
HSKGIYYVQLE [MGAT4B_Y262_Q257H]	1.02
KYVVVYFRETD [IL17RB_Y447_I451T]	0.762
RELGKYGLQAY [ALDH2_Y497_E496K]	0.581
INNIDYFKNTT [FGFR2_Y656_K659N_YF]	0.421
DMQTLYVNTAA [SMCHD1_Y403]	0.734
SVVAPYEPPEV [TP53_Y220_V218A]	1.08
NKPTVCGVSPN [ABL1_Y226_Y226C]	0.996
RRAKGYPINLF [ITGB2_Y125_D128N_YF]	0.537
CPTIHYNYMCN [TP53_Y234_T230P]	0.634
ISDDKYGRIRL [ARCN1_Y310]	0.433
MECLPYGSLRD [JAK2_Y934_Y931C]	0.75
MPIPMYDASQA [CARMIL1_Y637]	0.824
CTLSVYRQLHN [LUZP1_Y1036]	0.771

Sequence	phosphorylation enrichment
YSKDIYKRVTG [PANK2_Y405_N404I]	0.435
ILGRTHFVNHE [NEDD4_Y627_Y627H_YF]	0.5
VVIMLYGVDSR [PKD1_Y3143_G3139V]	1.04
HHTDEYEYDEL [TGM1_Y134]	1.08
RKPDIYGRLAS [MCM4_Y459_E460G]	0.67
RPGSGYTNIMQ [PKLR_Y564_R569Q]	0.549
YIIFIYAMKKK [SLCO1B1_Y645_L643F]	0.465
LFDPDFMKVIL [CYP4A22_Y104_Y104F_YF]	2.1
SHLSSYTTHPQ [NIPBL_Y195_P192L]	0.534
QEITTYRRLLE [KRT14_Y415_A413T]	0.815
HEKKVYSFCGT [RPS6KA3_Y226_A225V]	0.838
KAFDMYSGDVM [FAM3D_Y122]	0.508
VATRWYQSPEL [CDKL5_Y177_R178Q]	0.512
DNEAIYDICRC [TUBA4A_Y210_R215C]	10.3
YQGGTYSKAST [FGG_Y380]	0.388
DPEATYTTSGS [EPHA2_Y772_G777S]	0.617
